The text below walks through data of PMC3507442.

This test concerns the target vimentin (Rat2) (UniProt P31000). The test is described as follows: co-immunoprecipitation with Flag-Beclin 1. The settings on record: reference: wild-type Flag-Beclin 1; sites S234,S295.

For “Beclin 1 (from UniProt Q14457) S234A/S295A (AA)”, the “binding against the reference” value is “weaker”.
